Holding throughout (conditions): both partners purified
For assay [1], the target named is T1, importin α4 (IMPα4), Arabidopsis thaliana, recombinant (Arabidopsis thaliana, UniProt O80480 1-538, biotin (Biotin-PEG4-NHS ester Protein Labeling Kit) in the BLI experiments only).
T1 construct: importin alpha isoform 4 of Arabidopsis thaliana; gene isolated from A. thaliana, cloned into pETEV21a; Unlabelled in fluorescence polarisation; biotinylated and held on streptavidin tips in BLI; source: E. coli BL21pRARE, purified (Ni2+-IMAC)
Briefly: fluorescence polarisation; competition: TAMRA-NOP-1 and IMPα4 (6 μM) held constant, unlabelled competitor concentration varied; Logistic Fit in Origin; n = 3. (Fluorescence polarisation rises when a labelled molecule tumbles more slowly, as on binding a larger partner.)

The target in assay [2] is T1, importin α4 (IMPα4), Arabidopsis …. Put plainly: BLI; Octet K2; biotinylated ΔIBB_IMPα1 or IMPα4 loaded (15 μM, 600 s) on streptavidin biosensors; peptides/protein in solution; 100 mM Tris pH 7.0, 100 mM KCl, 0.01% Tween 20; room temperature; 300 s association, 300 s dissociation; dose response curves, 1:2 heterogeneous ligand model. On the technique in general: BLI is a label-free optical method that tracks binding on a fibre tip over time.

The target of assay [3] is T2, importin α6 (IMPα6), Arabidopsis thaliana, recombinant (Arabidopsis thaliana, UniProt Q9FWY7 1-538).
T2 construct: importin alpha isoform 6 of Arabidopsis thaliana; gene synthesised by GenScript, cloned into pETEV21a; source: E. coli BL21pRARE, purified (Ni2+-IMAC)
T2 sequence (looked up): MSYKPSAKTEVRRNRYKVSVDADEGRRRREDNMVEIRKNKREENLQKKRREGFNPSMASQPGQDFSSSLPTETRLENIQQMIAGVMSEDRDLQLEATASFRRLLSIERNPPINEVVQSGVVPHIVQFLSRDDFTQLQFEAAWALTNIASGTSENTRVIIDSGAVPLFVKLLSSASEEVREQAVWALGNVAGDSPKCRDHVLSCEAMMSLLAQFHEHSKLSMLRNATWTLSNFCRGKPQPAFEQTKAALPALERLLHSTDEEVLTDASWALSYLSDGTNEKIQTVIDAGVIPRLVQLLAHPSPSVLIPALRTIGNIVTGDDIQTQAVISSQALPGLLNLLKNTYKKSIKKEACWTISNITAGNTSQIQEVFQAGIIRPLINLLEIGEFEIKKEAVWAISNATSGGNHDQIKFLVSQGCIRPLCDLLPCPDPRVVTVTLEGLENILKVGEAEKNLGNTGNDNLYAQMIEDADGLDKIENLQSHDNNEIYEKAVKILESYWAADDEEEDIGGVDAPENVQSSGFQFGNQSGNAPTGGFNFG
Briefly: fluorescence polarisation; direct titration: TAMRA-NOP-1 constant at 250 nM, IMPα protein concentration varied; 50 μL samples; LS55 spectrometer; Kd by Logistic Fit in Origin; three independent measurements.

Assay [4] addresses T3, importin α3 (IMPα3), Arabidopsis thaliana, recombinant (Arabidopsis thaliana, UniProt O04294 1-531).
T3 construct: importin alpha isoform 3 of Arabidopsis thaliana; gene isolated from A. thaliana, cloned into pETEV21a; source: E. coli BL21pRARE, purified (Ni2+-IMAC)
Described as above.

Assay [5] concerns the target T4, importin α9 (IMPα9), Arabidopsis thaliana, recombinant (Arabidopsis thaliana, UniProt F4KF65 1-519).
T4 construct: importin alpha isoform 9 of Arabidopsis thaliana; gene synthesised by GenScript, cloned into pETEV21a; source: E. coli BL21pRARE, purified (Ni2+-IMAC)
T4 sequence (looked up): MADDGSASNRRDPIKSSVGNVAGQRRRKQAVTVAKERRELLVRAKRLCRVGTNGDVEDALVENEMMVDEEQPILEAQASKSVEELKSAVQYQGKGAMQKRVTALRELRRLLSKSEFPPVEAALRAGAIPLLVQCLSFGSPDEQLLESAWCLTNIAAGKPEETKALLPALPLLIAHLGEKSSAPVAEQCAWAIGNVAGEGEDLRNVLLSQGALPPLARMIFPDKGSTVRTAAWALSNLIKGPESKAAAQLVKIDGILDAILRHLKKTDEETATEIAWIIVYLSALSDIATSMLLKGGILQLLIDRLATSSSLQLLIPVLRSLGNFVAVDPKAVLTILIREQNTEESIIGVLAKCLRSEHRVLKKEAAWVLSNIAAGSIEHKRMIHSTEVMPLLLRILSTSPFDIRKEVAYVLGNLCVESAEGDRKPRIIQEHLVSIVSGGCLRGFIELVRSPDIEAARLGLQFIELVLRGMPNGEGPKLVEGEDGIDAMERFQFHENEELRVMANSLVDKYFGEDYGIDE
Described as above.

Assay [6] addresses T5, importin α5 (IMPα5), Arabidopsis thaliana, recombinant (Arabidopsis thaliana, UniProt Q9FJ09 1-519).
T5 construct: importin alpha isoform 5 of Arabidopsis thaliana; gene synthesised by GenScript, cloned into pETEV21a; IMPα5 was additionally cloned into pETEV16b (N-terminal deca-His-tag); source: E. coli BL21pRARE, purified (Ni2+-IMAC)
T5 sequence (looked up): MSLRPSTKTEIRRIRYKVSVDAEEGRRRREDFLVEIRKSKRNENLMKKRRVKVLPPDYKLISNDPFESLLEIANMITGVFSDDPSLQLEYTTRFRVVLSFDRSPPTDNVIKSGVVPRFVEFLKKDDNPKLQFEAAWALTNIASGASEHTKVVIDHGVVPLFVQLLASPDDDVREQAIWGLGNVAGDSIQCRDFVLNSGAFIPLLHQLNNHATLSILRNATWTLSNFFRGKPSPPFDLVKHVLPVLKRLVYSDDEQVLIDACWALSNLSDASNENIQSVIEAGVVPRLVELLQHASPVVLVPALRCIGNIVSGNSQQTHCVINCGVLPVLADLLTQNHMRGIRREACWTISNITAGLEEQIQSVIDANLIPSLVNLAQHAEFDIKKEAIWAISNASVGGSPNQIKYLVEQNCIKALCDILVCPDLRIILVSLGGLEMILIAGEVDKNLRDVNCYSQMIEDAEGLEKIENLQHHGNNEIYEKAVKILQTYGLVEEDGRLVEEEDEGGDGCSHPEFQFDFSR
The assay is described as above.

In assay [7] the target is T6, importin α8 (IMPα8), Arabidopsis thaliana, recombinant (Arabidopsis thaliana, UniProt Q9FJ92 1-441).
T6 construct: importin alpha isoform 8 of Arabidopsis thaliana (contains only ARM repeats, no IBB domain); gene isolated from A. thaliana, cloned into pETEV21a; source: E. coli BL21gold, purified (Ni2+-IMAC)
T6 sequence (looked up): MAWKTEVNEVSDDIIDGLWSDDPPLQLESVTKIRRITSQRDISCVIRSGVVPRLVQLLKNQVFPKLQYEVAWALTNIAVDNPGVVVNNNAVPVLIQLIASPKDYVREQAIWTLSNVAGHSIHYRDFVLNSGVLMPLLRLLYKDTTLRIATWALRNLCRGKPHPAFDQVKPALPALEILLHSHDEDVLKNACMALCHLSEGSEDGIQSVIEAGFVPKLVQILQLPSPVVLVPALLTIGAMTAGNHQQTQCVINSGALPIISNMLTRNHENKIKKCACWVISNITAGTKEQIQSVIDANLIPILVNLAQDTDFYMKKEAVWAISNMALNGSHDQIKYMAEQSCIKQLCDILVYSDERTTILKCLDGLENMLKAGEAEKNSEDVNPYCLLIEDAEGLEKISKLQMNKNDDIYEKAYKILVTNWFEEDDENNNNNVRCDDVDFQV
The description is as above.

Assay [8] has as its target T1, importin α4 (IMPα4), Arabidopsis …. The description is as above.
Assay [9] concerns the target T7, importin α2 (IMPα2), Arabidopsis thaliana, recombinant (Arabidopsis thaliana, UniProt F4JL11 1-535).
T7 construct: importin alpha isoform 2 of Arabidopsis thaliana; gene isolated from A. thaliana, cloned into pETEV21a; source: E. coli BL21pRARE, purified (Ni2+-IMAC)
The assay is described as above.

What is called Kd is the concentration at which binding is half-saturated.

Ends that are not written are not given here. * marks the point of attachment. 5‑TAMRA = 5-carboxytetramethylrhodamine, N-terminal label, CN(C)c1ccc2c(-c3ccc(C(=O)*)cc3C(=O)[O-])c3ccc(N(C)C)cc3[o+]c2c1

T1 sequence (O80480 whole entry, canonical isoform): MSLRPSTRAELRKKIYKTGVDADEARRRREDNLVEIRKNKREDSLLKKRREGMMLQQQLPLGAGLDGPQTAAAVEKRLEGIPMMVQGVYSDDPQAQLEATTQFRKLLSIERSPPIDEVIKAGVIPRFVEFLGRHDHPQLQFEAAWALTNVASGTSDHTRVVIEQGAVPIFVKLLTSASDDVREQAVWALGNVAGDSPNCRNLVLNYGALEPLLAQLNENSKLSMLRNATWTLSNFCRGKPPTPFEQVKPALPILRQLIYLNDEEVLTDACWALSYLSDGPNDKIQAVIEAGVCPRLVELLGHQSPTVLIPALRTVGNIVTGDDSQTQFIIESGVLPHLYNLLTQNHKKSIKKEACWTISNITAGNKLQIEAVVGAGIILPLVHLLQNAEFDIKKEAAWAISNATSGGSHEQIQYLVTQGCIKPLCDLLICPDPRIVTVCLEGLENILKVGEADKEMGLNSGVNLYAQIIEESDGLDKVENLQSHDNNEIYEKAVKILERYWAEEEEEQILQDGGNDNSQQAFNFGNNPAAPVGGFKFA
T3 sequence (O04294 whole entry, canonical isoform): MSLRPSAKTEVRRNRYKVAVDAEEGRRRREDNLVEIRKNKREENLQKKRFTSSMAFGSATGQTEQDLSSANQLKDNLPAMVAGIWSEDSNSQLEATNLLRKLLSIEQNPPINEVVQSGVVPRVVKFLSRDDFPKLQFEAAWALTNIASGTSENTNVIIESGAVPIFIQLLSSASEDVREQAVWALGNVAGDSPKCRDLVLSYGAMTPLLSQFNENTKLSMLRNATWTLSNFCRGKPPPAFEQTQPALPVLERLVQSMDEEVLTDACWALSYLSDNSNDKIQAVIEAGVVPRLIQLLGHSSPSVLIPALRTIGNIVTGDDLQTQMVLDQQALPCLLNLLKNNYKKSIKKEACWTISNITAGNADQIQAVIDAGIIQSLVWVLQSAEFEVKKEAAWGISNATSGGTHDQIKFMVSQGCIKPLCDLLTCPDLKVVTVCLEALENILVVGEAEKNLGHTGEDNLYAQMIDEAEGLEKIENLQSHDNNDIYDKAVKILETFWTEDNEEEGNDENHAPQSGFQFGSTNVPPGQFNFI
T7 sequence (F4JL11 whole entry, canonical isoform): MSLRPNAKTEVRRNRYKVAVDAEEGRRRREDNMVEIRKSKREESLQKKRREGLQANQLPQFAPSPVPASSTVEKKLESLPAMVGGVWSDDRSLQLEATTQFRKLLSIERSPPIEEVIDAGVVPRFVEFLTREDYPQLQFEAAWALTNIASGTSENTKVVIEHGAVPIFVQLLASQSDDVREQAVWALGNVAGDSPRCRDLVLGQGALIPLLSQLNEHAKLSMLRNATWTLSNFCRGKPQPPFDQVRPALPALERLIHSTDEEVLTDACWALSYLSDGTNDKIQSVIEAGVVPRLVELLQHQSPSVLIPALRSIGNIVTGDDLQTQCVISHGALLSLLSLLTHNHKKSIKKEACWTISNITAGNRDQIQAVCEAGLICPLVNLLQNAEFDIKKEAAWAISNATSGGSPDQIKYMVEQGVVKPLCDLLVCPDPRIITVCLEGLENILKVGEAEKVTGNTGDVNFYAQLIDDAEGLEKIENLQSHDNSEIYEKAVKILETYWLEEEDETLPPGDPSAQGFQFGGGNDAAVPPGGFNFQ

B1: GB1‐AtEIN2C^1215–1281 (domain or fragment, Arabidopsis thaliana, UniProt Q9S814 1215-1281, looked up)
chain: KGKCTTAVTLLDLIKDVEMAISCRKGRTGTAAGDVAFPKGKENLASVLKRYKRRLSNKPVGMNQDGP
notes: cloned into pETEV16b with a GB1-domain at the N terminus to enhance solubility; also called GB1_AtEIN2^1215–1281; shortened EIN2 CEND; source: E. coli BL21pRARE, purified (Ni2+-IMAC); not shown: GB1 domain, N-terminal, kept
On to B1, for which the Kd in assay [1] was found to be 22.1 ± 2.8 µM. In addition, in [2], the Kd high came to 21.4 µM and the Kd low came out at 0.455 µM.

B2: N41P‐1 (EIN2 residues 1229–1269) (peptide, UniProt Q9S814 1229-1269, looked up)
peptide: KDVEMAISCRKGRTGTAAGDVAFPKGKENLASVLKRYKRRL
notes: 41 residues; The methods speak of amidated C-termini and acetylated N-termini of 'the D-ri-peptides'; whether this holds for N41P-1 is not clear; also called extended EIN2‐NLS probe N41P‐1; source: synthetic peptide, bought: GenScript
For the molecule B2, the Kd in assay [1] amounted to 8.1 ± 1.1 µM; in [2], 9.8 µM.

B3: NOP‐1 (EIN2 NLS peptide, EIN2 residues 1262–1269) (peptide)
peptide: LKRYKRRL
notes: 8 residues; The methods speak of amidated C-termini and acetylated N-termini of 'the D-ri-peptides'; whether this holds for NOP-1 is not clear; also called EIN2‐NLS core motif; basic EIN2‐NLS probe; source: synthetic peptide, bought: GenScript
B3: the equilibrium dissociation constant (Kd) in [1] worked out at 4.1 ± 0.4 µM; in [2], 7.6 µM.

B4: TAMRA‐NOP‐1 (EIN2 NLS peptide, N‐terminally labeled with 5‐TAMRA) (peptide)
peptide: {5‑TAMRA}-LKRYKRRL
notes: also called fluorescently labeled NOP‐1; source: synthetic peptide (solid-phase peptide synthesis, Fmoc, made in house)
As to B4, the dissociation constant Kd was 8.7 ± 1.5 µM in assay [3]; 13.8 ± 0.9 µM in [5]; 12.9 ± 0.9 µM in [6]; 7.9 ± 0.2 µM in assay [7]; approximately 6 µM in assay [8]. For the same molecule, the binding result in assay [4] and in assay [9] was “binds” in each case.
